Results on five molecules are retold here after patent publication US7351689.

What all share (test): cell-based or functional assay
Assay [1] addresses human IL-28 receptor on transfected 293 HEK cells (IL-28 receptor alpha subunit with endogenous CRF2-4) (human).
The target of assay [2] is T1, zcyto20 (IL-28A), human (human) (UniProt Q8IZJ0).
T1 sequence: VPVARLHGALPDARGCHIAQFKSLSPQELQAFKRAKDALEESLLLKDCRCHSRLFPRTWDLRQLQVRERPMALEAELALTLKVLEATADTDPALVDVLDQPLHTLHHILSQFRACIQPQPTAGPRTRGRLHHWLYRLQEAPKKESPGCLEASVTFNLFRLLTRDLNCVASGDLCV

Assay [3] addresses zcyto21 (SEQ ID NO:15) (human) (UniProt Q8IU54).
The target of assay [4] is T2, zcyto24 (mouse IL-28) (mouse) (UniProt Q4VK74).
T2 sequence: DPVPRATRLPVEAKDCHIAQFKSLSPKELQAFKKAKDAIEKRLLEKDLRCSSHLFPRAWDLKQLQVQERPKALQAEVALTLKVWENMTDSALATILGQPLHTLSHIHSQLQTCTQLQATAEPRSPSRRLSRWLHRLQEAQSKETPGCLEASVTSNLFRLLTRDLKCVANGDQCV

Sequence of zcyto21 (SEQ ID NO:15) (human) (Q8IU54 other isoform, or with tags, fused parts or gaps): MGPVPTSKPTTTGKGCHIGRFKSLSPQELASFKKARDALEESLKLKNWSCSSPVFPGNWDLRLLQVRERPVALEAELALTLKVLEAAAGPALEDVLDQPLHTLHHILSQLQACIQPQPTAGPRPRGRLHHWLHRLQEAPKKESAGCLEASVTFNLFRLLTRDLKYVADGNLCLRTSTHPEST
Sequence of human IL-28 receptor on transfected 293 HEK cells (IL-28 receptor alpha subunit with endogenous CRF2-4) (human) (Q8IU57 whole entry, chain 1 of 2): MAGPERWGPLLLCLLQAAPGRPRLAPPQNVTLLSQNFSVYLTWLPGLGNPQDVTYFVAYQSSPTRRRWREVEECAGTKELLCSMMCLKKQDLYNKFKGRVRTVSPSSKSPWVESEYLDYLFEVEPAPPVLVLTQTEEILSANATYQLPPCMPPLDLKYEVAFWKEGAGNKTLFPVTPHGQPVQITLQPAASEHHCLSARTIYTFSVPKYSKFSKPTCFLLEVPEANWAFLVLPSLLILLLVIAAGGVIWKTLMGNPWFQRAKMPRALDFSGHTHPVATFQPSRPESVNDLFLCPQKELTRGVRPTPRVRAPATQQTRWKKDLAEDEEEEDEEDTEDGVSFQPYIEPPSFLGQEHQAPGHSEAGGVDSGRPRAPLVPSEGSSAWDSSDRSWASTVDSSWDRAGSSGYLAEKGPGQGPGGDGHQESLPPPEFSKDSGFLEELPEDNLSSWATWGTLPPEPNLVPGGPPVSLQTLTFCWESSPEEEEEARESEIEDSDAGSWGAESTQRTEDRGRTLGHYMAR
Sequence of human IL-28 receptor on transfected 293 HEK cells (IL-28 receptor alpha subunit with endogenous CRF2-4) (human) (Q08334 whole entry, chain 2 of 2, further chain): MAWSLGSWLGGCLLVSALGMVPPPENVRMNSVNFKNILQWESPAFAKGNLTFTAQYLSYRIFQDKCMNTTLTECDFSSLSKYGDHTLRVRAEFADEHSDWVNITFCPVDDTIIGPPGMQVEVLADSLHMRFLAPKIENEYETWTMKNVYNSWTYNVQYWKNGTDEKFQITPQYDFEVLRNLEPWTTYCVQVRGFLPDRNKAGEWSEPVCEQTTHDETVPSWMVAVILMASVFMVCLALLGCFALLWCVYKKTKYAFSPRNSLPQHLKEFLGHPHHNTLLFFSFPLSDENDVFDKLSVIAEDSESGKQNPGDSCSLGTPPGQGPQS

B1: IL-28B (SEQ ID NO: 6) (ligand)
chain: VPVARLRGALPDARGCHIAQFKSLSPQELQAFKRAKDALEESLLLKDCKCRSRLFPRTWDLRQLQVRERPVALEAELALTLKVLEATADTDPALGDVLDQPLHTLHHILSQLRACIQPQPTAGPRTRGRLHHWLHRLQEAPKKESPGCLEASVTFNLFRLLTRDLNCVASGDLCV
Molecule B1 registered an ISRE Signaling of Transfected 293 Cells Following Class II Cytokine Stimulation (Fold Induction), ISRE-Luc./IL-28R, IL-28B 125 ng/ml (fold induction) in assay [1] of 104.

B2: human zcytor19-Fc/human CRF2-4-Fc heterodimer (Fc fusion, from a related filing, not shown: a dimerising Fc or GST)
chain 1: RPRLAPPQNVTLLSQNFSVYLTWLPGLGNPQDVTYFVAYQSSPTRRRWREVEECAGTKELLCSMMCLKKQDLYNKFKGRVRTVSPSSKSPWVESEYLDYLFEVEPAPPVLVLTQTEEILSANATYQLPPCMPPLDLKYEVAFWKEGAGNKTLFPVTPHGQPVQITLQPAASEHHCLSARTIYTFSVPKYSKFSKPTCFLLEVPEANWA
chain 2: MVPPPENVRMNSVNFKNILQWESPAFAKGNLTFTAQYLSYRIFQDKCMNTTLTECDFSSLSKYGDHTLRVRAEFADEHSDWVNITFCPVDDTIIGPPGMQVEVLADSLHMRFLAPKIENEYETWTMKNVYNSWTYNVQYWKNGTDEKFQITPQYDFEVLRNLEPWTTYCVQVRGFLPDRNKAGEWSEPVCEQTTHDETVPS
modifications: left off: a dimerising Fc or GST
As for B2, the values for the Percent Inhibition of Ligand-induced Interferon Stimulated Response Element (ISRE) Signaling by Soluble Receptors (10 ng/ml ligand, 10 micrograms/ml soluble receptor) in assay [2], in assay [3] and in assay [4] were 16%, 16% and 47%, respectively.

B3: human CRF2-4-Fc homodimer (Fc fusion, from a related filing)
chain: MVPPPENVRMNSVNFKNILQWESPAFAKGNLTFTAQYLSYRIFQDKCMNTTLTECDFSSLSKYGDHTLRVRAEFADEHSDWVNITFCPVDDTIIGPPGMQVEVLADSLHMRFLAPKIENEYETWTMKNVYNSWTYNVQYWKNGTDEKFQITPQYDFEVLRNLEPWTTYCVQVRGFLPDRNKAGEWSEPVCEQTTHDETVPS
modifications: left off: a dimerising Fc or GST
Regarding B3, the Percent Inhibition of Ligand-induced Interferon Stimulated Response Element (ISRE) Signaling by Soluble Receptors (10 ng/ml ligand, 10 micrograms/ml soluble receptor) is 80% in assay [2], 79% in assay [3] and 82% in assay [4].

B4: human zcytor19-Fc homodimer (Fc fusion, not shown: a dimerising Fc or GST)
chain: RPRLAPPQNVTLLSQNFSVYLTWLPGLGNPQDVTYFVAYQSSPTRRRWREVEECAGTKELLCSMMCLKKQDLYNKFKGRVRTVSPSSKSPWVESEYLDYLFEVEPAPPVLVLTQTEEILSANATYQLPPCMPPLDLKYEVAFWKEGAGNKTLFPVTPHGQPVQITLQPAASEHHCLSARTIYTFSVPKYSKFSKPTCFLLEVPEANWA
Regarding B4, the Percent Inhibition of Ligand-induced Interferon Stimulated Response Element (ISRE) Signaling by Soluble Receptors (10 ng/ml ligand, 10 micrograms/ml soluble receptor) was determined as 92% in assay [2], 45% in assay [3] and 90% in assay [4].

B5: murine zcytor19-Ig homodimer (Fc fusion, mouse, UniProt Q8CGK5 21-227, looked up, not shown: a dimerising Fc or GST)
chain: RPRLAPPRNVTLFSQNFTVYLTWLPGLGSPPNVTYFVTYQSYIKTGWRPVEHCAGIKALVCPLMCLKKLNLYSKFKGRVQAASAHGRSPRVESRYLEYLFDVELAPPTLVLTQMEKILRVNATYQLPPCMPSLELKYQVEFWKEGLGSKTLFPDTPYGQPVQIPLQQGASRRHCLSARTVYTLIDIKYSQFSEPSCIFLEAPGDKRA
Regarding B5, the Percent Inhibition of Ligand-induced Interferon Stimulated Response Element (ISRE) Signaling by Soluble Receptors (10 ng/ml ligand, 10 micrograms/ml soluble receptor) is 91% in assay [2], 103% in assay [3] and 89% in assay [4].
